Experimental data reported in the supplement of paper PMC9112550, “Optimization of the antimicrobial peptide Bac7 by deep mutational scanning” (BMC Biology, 2022).

test system: Escherichia coli TOP10; test: shrunken log2 fold change of peptide-encoding DNA abundance (4.5 h post-induction vs induction); higher = less antimicrobial activity (less host growth inhibition); details: time post-induction: 4.5 h; library: site-saturation at positions 5, 18, 19, 20
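Note: peptides expressed intracellularly from a pBAD plasmid library in pooled LB shake-flask culture, induced with 0.3% L-arabinose, DNA abundance read by NGS, three biological replicates, DESeq2 with apeglm shrinkage.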

Sequence | shrunken log2 fold change
RRIRVRPPRLPRPRPRPGEIPRP | 0.0835
RRIRVRPPRLPRPRPRPGFYPRP | -0.345
RRIRVRPPRLPRPRPRPGHWPRP | 0.164
RRIRVRPPRLPRPRPRPGLKPRP | 0.049
RRIRVRPPRLPRPRPRPGLVPRP | 0.807
RRIRVRPPRLPRPRPRPGMRPRP | 0.565
RRIRVRPPRLPRPRPRPGPFPRP | -0.0278
RRIRVRPPRLPRPRPRPGPQPRP | 0.245
RRIRVRPPRLPRPRPRPGPSPRP | 0.201
RRIRVRPPRLPRPRPRPGPTPRP | 0.448
RRIRVRPPRLPRPRPRPGPWPRP | 0.273
RRIRVRPPRLPRPRPRPGQNPRP | -0.104
RRIRVRPPRLPRPRPRPGQVPRP | 0.0448
RRIRVRPPRLPRPRPRPGQYPRP | -0.113
RRIRVRPPRLPRPRPRPGRQPRP | 0.0976
RRIRVRPPRLPRPRPRPGSRPRP | 0.177
RRIRVRPPRLPRPRPRPGTFPRP | -0.867
RRIRVRPPRLPRPRPRPGTMPRP | -0.122
RRIRVRPPRLPRPRPRPGVHPRP | 0.107
RRIRVRPPRLPRPRPRPGVMPRP | -0.261
RRIRVRPPRLPRPRPRPHAHPRP | -0.256
RRIRVRPPRLPRPRPRPHCFPRP | -0.147
RRIRVRPPRLPRPRPRPHCHPRP | -0.105
RRIRVRPPRLPRPRPRPHCQPRP | -0.401
RRIRVRPPRLPRPRPRPHEHPRP | -0.0873

Sequence | shrunken log2 fold change
RRIRVRPPRLPRPRPRPHFPPRP | 0.046
RRIRVRPPRLPRPRPRPHGTPRP | -0.408
RRIRVRPPRLPRPRPRPHHKPRP | -0.477
RRIRVRPPRLPRPRPRPHHPPRP | -0.131
RRIRVRPPRLPRPRPRPHHTPRP | -0.731
RRIRVRPPRLPRPRPRPHIPPRP | -0.602
RRIRVRPPRLPRPRPRPHKHPRP | -0.483
RRIRVRPPRLPRPRPRPHLMPRP | -0.36
RRIRVRPPRLPRPRPRPHLNPRP | -0.455
RRIRVRPPRLPRPRPRPHMCPRP | -0.301
RRIRVRPPRLPRPRPRPHNMPRP | -0.389
RRIRVRPPRLPRPRPRPHQHPRP | -0.189
RRIRVRPPRLPRPRPRPHTDPRP | -0.141
RRIRVRPPRLPRPRPRPHTSPRP | -0.643
RRIRVRPPRLPRPRPRPHTYPRP | -0.154
RRIRVRPPRLPRPRPRPHVQPRP | -0.0929
RRIRVRPPRLPRPRPRPHVWPRP | -0.145
RRIRVRPPRLPRPRPRPHYNPRP | -0.366
RRIRVRPPRLPRPRPRPHYPPRP | -0.675
RRIRVRPPRLPRPRPRPIAPPRP | 0.328
RRIRVRPPRLPRPRPRPIAYPRP | -0.184
RRIRVRPPRLPRPRPRPIDPPRP | -0.0131
RRIRVRPPRLPRPRPRPIEWPRP | -0.000773
RRIRVRPPRLPRPRPRPIFNPRP | -0.274
RRIRVRPPRLPRPRPRPIGCPRP | -0.0514

Sequence | shrunken log2 fold change
RRIRVRPPRLPRPRPRPIHMPRP | -0.0179
RRIRVRPPRLPRPRPRPIICPRP | -0.448
RRIRVRPPRLPRPRPRPIIGPRP | 0.0272
RRIRVRPPRLPRPRPRPIIYPRP | -0.475
RRIRVRPPRLPRPRPRPIKEPRP | -0.327
RRIRVRPPRLPRPRPRPIKFPRP | 0.0613
RRIRVRPPRLPRPRPRPIKYPRP | -0.169
RRIRVRPPRLPRPRPRPILRPRP | 0.0599
RRIRVRPPRLPRPRPRPINRPRP | -0.239
RRIRVRPPRLPRPRPRPISIPRP | -0.133
RRIRVRPPRLPRPRPRPITGPRP | -0.00538
RRIRVRPPRLPRPRPRPIVHPRP | -0.00223
RRIRVRPPRLPRPRPRPIVVPRP | -0.129
RRIRVRPPRLPRPRPRPIWMPRP | -0.0796
RRIRVRPPRLPRPRPRPIWYPRP | -0.146
RRIRVRPPRLPRPRPRPKATPRP | 0.266
RRIRVRPPRLPRPRPRPKCKPRP | -0.191
RRIRVRPPRLPRPRPRPKCQPRP | 0.106
RRIRVRPPRLPRPRPRPKDHPRP | -0.308
RRIRVRPPRLPRPRPRPKFGPRP | 0.017
RRIRVRPPRLPRPRPRPKFVPRP | 0.11
RRIRVRPPRLPRPRPRPKGPPRP | 0.36
RRIRVRPPRLPRPRPRPKGVPRP | 0.472
RRIRVRPPRLPRPRPRPKITPRP | -0.524
RRIRVRPPRLPRPRPRPKIYPRP | -0.309
